According to US20200262877A1, “ION CHANNEL-BINDING PEPTIDES AND METHODS OF USE THEREOF” (priority 2017, published 2020):

Key:
[1] = target: T1, 5HT3a (Homo sapiens, UniProt P46098); assay: Ion channel panel (IonWorks Barracuda): 5HT3a; type: cell-based
T1 construct: host or cells: HEK293 or CHO
T1 sequence (P46098 whole entry, looked up): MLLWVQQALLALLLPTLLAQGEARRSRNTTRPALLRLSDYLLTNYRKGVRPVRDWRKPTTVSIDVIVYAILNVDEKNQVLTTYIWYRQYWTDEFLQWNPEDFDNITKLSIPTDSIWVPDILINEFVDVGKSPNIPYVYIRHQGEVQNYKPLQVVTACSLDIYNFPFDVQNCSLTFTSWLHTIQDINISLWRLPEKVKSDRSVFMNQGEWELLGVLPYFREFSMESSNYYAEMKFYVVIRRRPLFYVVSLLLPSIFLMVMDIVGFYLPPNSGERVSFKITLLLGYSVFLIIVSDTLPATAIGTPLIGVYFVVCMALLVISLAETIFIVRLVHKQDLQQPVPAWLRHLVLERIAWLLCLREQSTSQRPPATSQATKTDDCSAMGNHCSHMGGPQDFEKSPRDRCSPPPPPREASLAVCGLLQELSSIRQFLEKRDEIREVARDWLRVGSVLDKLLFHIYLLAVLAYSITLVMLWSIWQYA
Method in brief: (§1)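 Transfected HEK293 or CHO cells were exposed for at least 5 min to peptides at 200 nM and 20 μM final, tested in duplicate, in HEPES-buffered physiological saline. Activation was taken as peptide-plus-agonist current over control current ×100, and inhibition as 1 minus that ratio ×100. Each channel's control was its own reference compound.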

[2] = target: T2, α3β4 (Homo sapiens, UniProt P30926+P32297); assay: Ion channel panel (IonWorks Barracuda): α3β4; type: cell-based; details: 100% = no change, <100% = inhibition
T2 construct: host or cells: HEK293 or CHO
Method in brief: as §1

[3] = target: T3, α4β2 (Homo sapiens, UniProt P17787+P43681); assay: Ion channel panel (IonWorks Barracuda): α4β2; type: cell-based; details: 100% = no change, <100% = inhibition
T3 construct: host or cells: HEK293 or CHO
Method in brief: as §1

[4] = target: T4, Cav2.1 (Homo sapiens, UniProt O00555); assay: cell-based; details: 100% = no change, <100% = inhibition
T4 construct: host or cells: HEK293 or CHO
Method in brief: as §1

[5] = target: T5, Cav2.2 (Homo sapiens, UniProt Q00975); assay: cell-based; details: 100% = no change, <100% = inhibition
T5 construct: host or cells: HEK293 or CHO
Method in brief: as §1

[6] = target: T6, Kv2.1 (Homo sapiens, UniProt Q14721); assay: cell-based; details: 100% = no change, <100% = inhibition
T6 construct: host or cells: HEK293 or CHO
Method in brief: as §1

[7] = tested on: GABA; assay: Ion channel panel (IonWorks Barracuda): GABA; type: cell-based; details: 100% = no change, <100% = inhibition
Method in brief: as §1

[8] = target: Nav1.5 (Homo sapiens, UniProt Q14524); assay: in vitro; details: 100% = no change; for Activity of Nav1.5 with peptide, expressed as a percentage of the reference compound: peptide at 0.2 μM; for Activity of Nav1.5 with peptide (percentage of the reference compound): peptide at 20 μM
Method in brief: as §1

[9] = target: hERG (Homo sapiens, UniProt Q12809); assay: in vitro; details: 100% = no change, <100% = inhibition
Method in brief: as §1

[10] = target: T7, Kir2.1 (Homo sapiens, UniProt P63252); assay: Ion channel panel (IonWorks Barracuda): Kir2.1; type: cell-based; details: 100% = no change, <100% = inhibition
T7 construct: host or cells: HEK293 or CHO
Method in brief: as §1

[11] = target: T8, Kv1.1 (Homo sapiens, UniProt Q09470); assay: cell-based; type: cell-based; details: 100% = no change, <100% = inhibition
T8 construct: host or cells: HEK293 or CHO
Method in brief: as §1

[12] = target: T9, Kv1.2 (Homo sapiens, UniProt P16389); assay: cell-based; type: cell-based; details: 100% = no change, <100% = inhibition
T9 construct: host or cells: HEK293 or CHO
Method in brief: as §1

[13] = target: T10, Kv1.3 (Homo sapiens, UniProt P22001); assay: cell-based; type: cell-based; details: 100% = no change, <100% = inhibition
T10 construct: host or cells: HEK293 or CHO
Method in brief: as §1

[14] = target: T11, Nav1.7 (Homo sapiens, UniProt Q15858); assay: cell-based; type: cell-based; details: 100% = no change; for Activity of Nav1.7 with peptide, expressed as a percentage of the reference compound: peptide at 0.2 μM; for Activity of Nav1.7 with peptide (percentage of the reference compound): peptide at 20 μM
T11 construct: host or cells: HEK293 or CHO

[15] = target: T12, NR2A (Homo sapiens, UniProt Q12879); assay: Ion channel panel (IonWorks Barracuda): NR2A; type: cell-based; details: 100% = no change, <100% = inhibition
T12 construct: host or cells: HEK293 or CHO
Method in brief: as §1

[16] = target: T13, NR2B (Homo sapiens, UniProt Q13224); assay: Ion channel panel (IonWorks Barracuda): NR2B; type: cell-based; details: 100% = no change, <100% = inhibition
T13 construct: host or cells: HEK293 or CHO
Method in brief: as §1

[17] = target: T14, TRPA1 (Homo sapiens, UniProt O75762); assay: Ion channel panel (IonWorks Barracuda): TRPA1; type: cell-based; details: 100% = no change, <100% = inhibition
T14 construct: host or cells: HEK293 or CHO
Method in brief: as §1

[18] = target: T15, TRPV1 (Homo sapiens, UniProt Q8NER1); assay: Ion channel panel (IonWorks Barracuda): TRPV1; type: cell-based; details: 100% = no change, <100% = inhibition
T15 construct: host or cells: HEK293 or CHO
Method in brief: as §1

[19] = first of two Nav1.5 columns (probably TP1)
[20] = second of two Nav1.5 columns (probably TP2)
[21] = first of two Nav1.7 columns (probably TP1)
[22] = second of two Nav1.7 columns (probably TP2)

T11 sequence (Q15858 whole entry): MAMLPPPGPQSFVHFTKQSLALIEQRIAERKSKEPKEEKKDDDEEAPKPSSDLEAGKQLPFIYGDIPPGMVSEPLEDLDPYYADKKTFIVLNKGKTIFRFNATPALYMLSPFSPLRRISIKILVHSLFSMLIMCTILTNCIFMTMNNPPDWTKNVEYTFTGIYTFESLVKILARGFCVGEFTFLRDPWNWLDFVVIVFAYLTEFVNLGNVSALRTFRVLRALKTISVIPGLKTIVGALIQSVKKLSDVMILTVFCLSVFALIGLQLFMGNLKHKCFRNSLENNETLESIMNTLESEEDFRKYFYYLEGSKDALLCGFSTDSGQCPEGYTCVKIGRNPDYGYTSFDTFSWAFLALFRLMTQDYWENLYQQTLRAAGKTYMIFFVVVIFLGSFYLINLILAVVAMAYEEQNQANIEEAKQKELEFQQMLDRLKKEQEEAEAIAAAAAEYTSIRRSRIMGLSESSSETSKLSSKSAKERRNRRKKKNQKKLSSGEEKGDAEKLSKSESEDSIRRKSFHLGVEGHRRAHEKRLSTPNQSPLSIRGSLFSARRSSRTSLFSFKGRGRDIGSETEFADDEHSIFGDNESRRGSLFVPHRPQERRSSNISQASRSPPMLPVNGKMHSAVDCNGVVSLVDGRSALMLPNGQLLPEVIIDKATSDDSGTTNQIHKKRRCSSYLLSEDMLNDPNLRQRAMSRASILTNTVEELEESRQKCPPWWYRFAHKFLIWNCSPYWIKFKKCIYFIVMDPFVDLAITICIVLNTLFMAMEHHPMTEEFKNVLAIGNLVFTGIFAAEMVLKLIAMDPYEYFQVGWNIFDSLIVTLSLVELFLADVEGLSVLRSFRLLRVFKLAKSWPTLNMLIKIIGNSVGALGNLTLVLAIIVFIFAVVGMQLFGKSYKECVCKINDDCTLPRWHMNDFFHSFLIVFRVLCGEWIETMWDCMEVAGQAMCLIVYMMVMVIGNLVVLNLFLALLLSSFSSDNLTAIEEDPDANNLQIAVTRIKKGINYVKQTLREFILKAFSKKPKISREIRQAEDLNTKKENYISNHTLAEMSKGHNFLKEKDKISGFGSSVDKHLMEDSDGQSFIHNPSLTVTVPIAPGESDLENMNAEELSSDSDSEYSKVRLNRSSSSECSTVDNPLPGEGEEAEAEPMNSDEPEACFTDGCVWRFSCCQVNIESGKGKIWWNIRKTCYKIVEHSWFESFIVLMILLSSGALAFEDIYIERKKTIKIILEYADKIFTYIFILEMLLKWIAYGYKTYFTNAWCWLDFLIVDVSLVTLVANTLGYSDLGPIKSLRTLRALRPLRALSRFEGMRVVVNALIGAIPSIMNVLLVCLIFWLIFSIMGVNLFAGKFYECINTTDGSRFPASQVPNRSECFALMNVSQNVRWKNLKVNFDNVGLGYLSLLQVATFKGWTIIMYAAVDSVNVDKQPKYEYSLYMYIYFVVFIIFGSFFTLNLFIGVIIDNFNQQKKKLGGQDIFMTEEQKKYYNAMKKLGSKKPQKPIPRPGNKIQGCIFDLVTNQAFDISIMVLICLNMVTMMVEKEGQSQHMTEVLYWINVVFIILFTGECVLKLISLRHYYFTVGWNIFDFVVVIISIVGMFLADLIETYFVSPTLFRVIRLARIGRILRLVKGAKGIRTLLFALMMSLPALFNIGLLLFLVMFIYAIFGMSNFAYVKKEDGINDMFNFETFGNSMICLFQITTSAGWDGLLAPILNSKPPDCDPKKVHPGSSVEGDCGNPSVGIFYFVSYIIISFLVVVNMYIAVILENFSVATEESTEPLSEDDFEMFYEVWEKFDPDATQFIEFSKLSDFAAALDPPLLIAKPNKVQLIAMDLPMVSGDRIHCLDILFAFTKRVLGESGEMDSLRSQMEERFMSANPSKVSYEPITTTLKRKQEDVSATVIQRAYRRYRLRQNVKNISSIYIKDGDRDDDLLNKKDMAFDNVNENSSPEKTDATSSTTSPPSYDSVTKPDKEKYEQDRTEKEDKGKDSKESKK
Sequence of Nav1.5 (Q14524 whole entry): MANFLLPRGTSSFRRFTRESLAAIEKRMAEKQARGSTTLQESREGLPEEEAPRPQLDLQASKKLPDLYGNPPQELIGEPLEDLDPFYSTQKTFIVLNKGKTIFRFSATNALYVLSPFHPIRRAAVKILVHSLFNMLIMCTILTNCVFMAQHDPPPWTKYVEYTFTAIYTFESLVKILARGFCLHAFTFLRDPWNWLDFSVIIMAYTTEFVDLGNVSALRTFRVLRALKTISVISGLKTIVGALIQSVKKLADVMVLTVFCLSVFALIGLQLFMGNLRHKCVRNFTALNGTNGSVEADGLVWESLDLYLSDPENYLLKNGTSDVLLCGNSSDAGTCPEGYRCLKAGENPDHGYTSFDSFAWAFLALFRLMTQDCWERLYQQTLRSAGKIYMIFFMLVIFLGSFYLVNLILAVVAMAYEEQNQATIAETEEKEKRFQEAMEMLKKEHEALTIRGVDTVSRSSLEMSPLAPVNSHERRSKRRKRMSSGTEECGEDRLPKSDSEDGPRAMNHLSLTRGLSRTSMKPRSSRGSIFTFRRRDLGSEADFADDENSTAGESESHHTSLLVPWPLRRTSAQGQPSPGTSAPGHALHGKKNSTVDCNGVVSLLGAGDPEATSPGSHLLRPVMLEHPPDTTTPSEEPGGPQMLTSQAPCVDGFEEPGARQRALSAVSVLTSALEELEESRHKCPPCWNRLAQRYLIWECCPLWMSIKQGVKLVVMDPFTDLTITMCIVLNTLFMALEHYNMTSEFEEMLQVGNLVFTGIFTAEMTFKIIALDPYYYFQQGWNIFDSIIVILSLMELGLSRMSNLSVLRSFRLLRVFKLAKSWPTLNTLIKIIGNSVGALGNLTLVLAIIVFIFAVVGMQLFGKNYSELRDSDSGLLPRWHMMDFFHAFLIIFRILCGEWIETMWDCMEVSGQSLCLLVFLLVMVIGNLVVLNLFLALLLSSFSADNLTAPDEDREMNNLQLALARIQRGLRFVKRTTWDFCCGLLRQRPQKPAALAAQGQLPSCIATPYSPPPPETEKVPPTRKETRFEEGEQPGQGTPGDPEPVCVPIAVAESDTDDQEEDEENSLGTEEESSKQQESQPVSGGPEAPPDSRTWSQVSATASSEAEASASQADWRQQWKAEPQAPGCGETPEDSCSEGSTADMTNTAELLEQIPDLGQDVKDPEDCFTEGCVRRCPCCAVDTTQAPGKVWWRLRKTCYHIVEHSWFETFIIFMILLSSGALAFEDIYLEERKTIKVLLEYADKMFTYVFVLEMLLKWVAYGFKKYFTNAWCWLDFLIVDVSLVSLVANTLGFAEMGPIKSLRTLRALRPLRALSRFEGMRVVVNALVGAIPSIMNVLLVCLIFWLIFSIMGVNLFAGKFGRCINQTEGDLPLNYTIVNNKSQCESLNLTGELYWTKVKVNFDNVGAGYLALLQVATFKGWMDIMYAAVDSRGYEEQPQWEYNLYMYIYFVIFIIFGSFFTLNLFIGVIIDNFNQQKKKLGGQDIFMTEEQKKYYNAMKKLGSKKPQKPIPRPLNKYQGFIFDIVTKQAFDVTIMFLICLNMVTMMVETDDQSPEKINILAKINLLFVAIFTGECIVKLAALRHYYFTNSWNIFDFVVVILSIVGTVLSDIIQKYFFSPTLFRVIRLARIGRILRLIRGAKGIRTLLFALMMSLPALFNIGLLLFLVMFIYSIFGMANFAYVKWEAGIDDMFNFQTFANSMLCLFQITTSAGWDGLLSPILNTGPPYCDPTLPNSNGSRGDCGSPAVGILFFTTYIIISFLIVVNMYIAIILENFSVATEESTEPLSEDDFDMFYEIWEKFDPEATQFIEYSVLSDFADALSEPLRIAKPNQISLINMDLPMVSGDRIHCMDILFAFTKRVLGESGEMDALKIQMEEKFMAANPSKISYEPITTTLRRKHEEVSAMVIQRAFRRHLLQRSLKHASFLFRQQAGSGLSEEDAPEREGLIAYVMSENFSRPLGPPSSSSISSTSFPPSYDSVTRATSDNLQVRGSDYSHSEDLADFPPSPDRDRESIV
T8 sequence (Q09470 whole entry): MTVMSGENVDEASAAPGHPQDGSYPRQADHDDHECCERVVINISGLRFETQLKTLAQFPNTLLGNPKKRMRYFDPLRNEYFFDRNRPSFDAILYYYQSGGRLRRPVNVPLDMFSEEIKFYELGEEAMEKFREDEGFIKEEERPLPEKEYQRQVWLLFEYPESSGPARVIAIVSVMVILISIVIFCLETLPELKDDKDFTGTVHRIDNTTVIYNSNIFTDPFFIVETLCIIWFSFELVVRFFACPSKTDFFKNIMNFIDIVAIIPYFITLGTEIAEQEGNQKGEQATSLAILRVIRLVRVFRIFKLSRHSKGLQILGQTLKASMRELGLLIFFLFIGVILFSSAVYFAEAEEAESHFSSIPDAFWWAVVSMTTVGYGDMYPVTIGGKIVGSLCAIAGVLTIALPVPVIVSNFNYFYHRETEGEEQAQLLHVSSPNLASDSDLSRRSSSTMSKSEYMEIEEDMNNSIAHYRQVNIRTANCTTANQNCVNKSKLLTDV
T9 sequence (P16389 whole entry): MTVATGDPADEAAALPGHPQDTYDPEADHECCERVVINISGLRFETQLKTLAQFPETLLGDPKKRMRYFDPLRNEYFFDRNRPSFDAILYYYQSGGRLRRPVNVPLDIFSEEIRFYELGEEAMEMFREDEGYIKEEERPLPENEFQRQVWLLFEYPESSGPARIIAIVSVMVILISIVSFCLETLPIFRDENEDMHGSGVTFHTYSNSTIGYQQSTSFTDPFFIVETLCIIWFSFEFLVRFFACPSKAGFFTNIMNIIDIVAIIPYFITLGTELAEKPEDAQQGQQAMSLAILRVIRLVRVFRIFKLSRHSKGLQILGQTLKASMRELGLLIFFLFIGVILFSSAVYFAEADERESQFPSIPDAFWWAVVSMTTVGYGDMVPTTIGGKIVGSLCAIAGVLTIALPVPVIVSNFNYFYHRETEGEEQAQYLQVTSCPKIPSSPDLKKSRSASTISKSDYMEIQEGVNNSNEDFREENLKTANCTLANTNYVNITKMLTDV

Substance: 38 (GSGIGDPVTCLKSGAICHPVFCPRRYKQIGTCGLPGTKCCKKP) [compound 38]
- Activity of 5HT3a with peptide (percentage of the reference compound) [1]: 98%
- Activity of 5HT3a with peptide, expressed as a percentage of the reference compound [1]: 97%
- Activity of a3b4 with peptide, expressed as a percentage of the reference compound ([2]; peptide at 0.2 μM): 99%
- Activity of a3b4 with peptide (percentage of the reference compound) ([2]; peptide at 20 μM): 92%
- Activity of a4b2 with peptide, expressed as a percentage of the reference compound ([3]; peptide at 0.2 μM): 107%
- Activity of a4b2 with peptide (percentage of the reference compound) ([3]; peptide at 20 μM): 88%
- Activity of Cav2.1 with peptide, expressed as a percentage of the reference compound ([4]; peptide at 0.2 μM): 95%
- Activity of Cav2.1 with peptide (percentage of the reference compound) ([4]; peptide at 20 μM): 93%
- Activity of Cav2.2 with peptide, expressed as a percentage of the reference compound ([5]; peptide at 0.2 μM): 117%
- Activity of Cav2.2 with peptide (percentage of the reference compound) ([5]; peptide at 20 μM): 89%
- Activity of Kv2.1 with peptide, expressed as a percentage of the reference compound ([6]; peptide at 0.2 μM): 100%
- Activity of Kv2.1 with peptide (percentage of the reference compound) ([6]; peptide at 20 μM): 125%
- Activity of GABA with peptide, expressed as a percentage of the reference compound ([7]; peptide at 0.2 μM): 121%
- Activity of GABA with peptide (percentage of the reference compound) ([7]; peptide at 20 μM): 112%
- Activity of Nav1.5 with peptide, expressed as a percentage of the reference compound [8, 19]: 124%
- Activity of Nav1.5 with peptide, expressed as a percentage of the reference compound [8, 20]: 124%
- Activity of Nav1.5 with peptide (percentage of the reference compound) [8, 19]: 107%
- Activity of Nav1.5 with peptide (percentage of the reference compound) [8, 20]: 112%
- Activity of hERG with peptide, expressed as a percentage of the reference compound ([9]; peptide at 0.2 μM): 86%
- Activity of hERG with peptide (percentage of the reference compound) ([9]; peptide at 20 μM): 71%
- Activity of Kir2.1 with peptide, expressed as a percentage of the reference compound ([10]; peptide at 0.2 μM): 88%
- Activity of Kir2.1 with peptide (percentage of the reference compound) ([10]; peptide at 20 μM): 126%
- Activity of Kv1.1 with peptide, expressed as a percentage of the reference compound ([11]; peptide at 0.2 μM): 97%
- Activity of Kv1.1 with peptide (percentage of the reference compound) ([11]; peptide at 20 μM): 73%
- Activity of Kv1.2 with peptide, expressed as a percentage of the reference compound ([12]; peptide at 0.2 μM): 100%
- Activity of Kv1.2 with peptide (percentage of the reference compound) ([12]; peptide at 20 μM): 84%
- Activity of Kv1.3 with peptide, expressed as a percentage of the reference compound ([13]; peptide at 0.2 μM): 101%
- Activity of Kv1.3 with peptide (percentage of the reference compound) ([13]; peptide at 20 μM): 31%
- Activity of Nav1.7 with peptide, expressed as a percentage of the reference compound [14, 21]: 83%
- Activity of Nav1.7 with peptide, expressed as a percentage of the reference compound [14, 22]: 143%
- Activity of Nav1.7 with peptide (percentage of the reference compound) [14, 21]: 86%
- Activity of Nav1.7 with peptide (percentage of the reference compound) [14, 22]: 86%
- Activity of NR2A with peptide, expressed as a percentage of the reference compound ([15]; peptide at 0.2 μM): 100%
- Activity of NR2A with peptide (percentage of the reference compound) ([15]; peptide at 20 μM): 90%
- Activity of NR2B with peptide, expressed as a percentage of the reference compound ([16]; peptide at 0.2 μM): 83%
- Activity of NR2B with peptide (percentage of the reference compound) ([16]; peptide at 20 μM): 88%
- Activity of TRPA1 with peptide, expressed as a percentage of the reference compound ([17]; peptide at 0.2 μM): 138%
- Activity of TRPA1 with peptide (percentage of the reference compound) ([17]; peptide at 20 μM): 108%
- Activity of TRPV1 with peptide, expressed as a percentage of the reference compound ([18]; peptide at 0.2 μM): 98%
- Activity of TRPV1 with peptide (percentage of the reference compound) ([18]; peptide at 20 μM): 76%
